Consider four molecules from publication doi:10.1101/2023.12.07.570680.

Data set [1] concerns the target T1, EMB1006-MBP (Arabidopsis thaliana, UniProt Q9FGR7 44-723).
T1 sequence: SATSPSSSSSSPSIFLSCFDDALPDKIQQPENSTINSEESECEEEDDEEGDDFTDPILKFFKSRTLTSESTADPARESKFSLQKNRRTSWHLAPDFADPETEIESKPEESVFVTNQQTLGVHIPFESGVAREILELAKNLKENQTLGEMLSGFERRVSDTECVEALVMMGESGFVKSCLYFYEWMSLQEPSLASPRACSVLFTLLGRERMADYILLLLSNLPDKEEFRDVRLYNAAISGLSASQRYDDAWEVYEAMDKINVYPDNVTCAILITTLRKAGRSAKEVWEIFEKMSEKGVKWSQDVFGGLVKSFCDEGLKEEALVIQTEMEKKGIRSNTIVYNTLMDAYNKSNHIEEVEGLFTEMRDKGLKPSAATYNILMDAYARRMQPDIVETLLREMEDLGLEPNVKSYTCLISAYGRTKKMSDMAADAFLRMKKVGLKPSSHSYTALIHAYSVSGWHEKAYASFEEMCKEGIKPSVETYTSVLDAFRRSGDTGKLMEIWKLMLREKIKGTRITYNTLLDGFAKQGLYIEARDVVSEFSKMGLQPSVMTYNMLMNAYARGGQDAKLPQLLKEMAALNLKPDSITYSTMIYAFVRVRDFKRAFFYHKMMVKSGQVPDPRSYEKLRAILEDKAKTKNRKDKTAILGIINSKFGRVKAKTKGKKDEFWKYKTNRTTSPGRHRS
As to the kind of experiment: competition.

Data set [2] deals with T2, EMB976-MBP (Arabidopsis thaliana, UniProt O04647 1-1038).
T2 sequence: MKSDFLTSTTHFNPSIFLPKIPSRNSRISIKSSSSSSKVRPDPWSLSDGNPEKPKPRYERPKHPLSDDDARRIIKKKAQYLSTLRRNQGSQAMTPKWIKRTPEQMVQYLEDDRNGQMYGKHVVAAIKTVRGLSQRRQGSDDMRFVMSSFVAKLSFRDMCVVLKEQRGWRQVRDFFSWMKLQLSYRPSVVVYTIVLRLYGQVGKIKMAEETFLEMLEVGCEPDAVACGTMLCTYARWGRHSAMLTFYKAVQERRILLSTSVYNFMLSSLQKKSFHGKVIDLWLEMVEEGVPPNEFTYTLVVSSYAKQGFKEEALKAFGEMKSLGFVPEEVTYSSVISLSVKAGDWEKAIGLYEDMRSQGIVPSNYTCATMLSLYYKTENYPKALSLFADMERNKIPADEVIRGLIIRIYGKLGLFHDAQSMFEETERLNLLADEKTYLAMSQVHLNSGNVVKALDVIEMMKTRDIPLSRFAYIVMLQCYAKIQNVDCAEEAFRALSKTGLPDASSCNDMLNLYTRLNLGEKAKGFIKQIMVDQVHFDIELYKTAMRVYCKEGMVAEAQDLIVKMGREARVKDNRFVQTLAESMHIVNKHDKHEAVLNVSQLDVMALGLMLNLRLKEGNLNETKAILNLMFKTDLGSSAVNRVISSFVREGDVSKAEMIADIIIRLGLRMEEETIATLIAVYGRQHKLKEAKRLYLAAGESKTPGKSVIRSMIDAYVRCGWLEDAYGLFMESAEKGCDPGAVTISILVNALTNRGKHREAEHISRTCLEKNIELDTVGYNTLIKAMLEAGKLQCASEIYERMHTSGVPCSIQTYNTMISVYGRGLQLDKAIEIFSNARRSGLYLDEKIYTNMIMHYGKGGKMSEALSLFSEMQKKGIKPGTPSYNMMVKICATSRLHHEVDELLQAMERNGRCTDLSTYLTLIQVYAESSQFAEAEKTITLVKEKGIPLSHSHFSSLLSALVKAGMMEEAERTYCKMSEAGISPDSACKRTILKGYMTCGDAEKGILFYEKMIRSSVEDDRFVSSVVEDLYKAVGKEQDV
As to the kind of experiment: EMSA.

Data set [3] concerns the target T1, EMB1006-MBP. Nature of the data set: EMSA.

With UUUUUUAGAUUAAAAAAAAAUUCG (ssRNA) [clpP1-intron2-Cold], the binding result in data set [1] is on record as “no binding”.

As for AAUUACCAAACGUAUAGCAUUCC (ssRNA) [clpP1-exon2-Cold], the binding result in data set [1] is reported as “binds”.

Consider GAAGAGGUUUUUCAAAUGAUA (ssRNA) [Cy5-clpP1-intron2-976], for which the binding result in data set [2] is “no binding”.

Consider AAUUACCAAACGUAUAGCAUUCC (ssRNA) [Cy5-clpP1-exon2], for which the binding result in data set [3] was “binds”.
